Measurements: patent publication US20230285585A1, “TREATMENT OF PULMONARY HYPERTENSION” (PHILOGEN S.P.A., priority 2020, published 2023)

What was measured:
[1] = target: T1, recombinant fibronectin 11A12 domain (EDA) (Homo sapiens, UniProt P02751); experiment: Biacore surface plasmon resonance binding analysis; details: SPR, BIAcore X100, CM5 chip coated with recombinant fibronectin 11A12 domain
T1 construct: recombinant fibronectin 11A12 domain
Protocol: Binding affinity was determined by surface plasmon resonance using a BIAcore X100 instrument using a CM5 chip coated with recombinant fibronectin 11A12 domain. Samples were injected as serial-dilution, using a concentration range from […] to 125 nM.

[2] = system: Monocrotaline (MCT) induced pulmonary hypertension (PH) in C57BL/6 mice; experiment: Right heart catheterization in MCT induced PH mouse model (Example 4); format: in vivo; details: for pressure values in the right ventricle, RVPsys (result in words): in contrast to KSF containing control immunocytokines
Excerpt: To induce Pulmonary Hypertension (PH), C57BL/6 mice (bodyweight: 25-30 g) were used. The animals were obtained from ZET facility (Zentrale Experimentelle Tierhaltung) of the University Hospital Jena (UKJ, Jena, Germany). Prior to PH induction, mice were allowed to acclimatize for at least 7 days with ad libitum access to food and water as well as controlled light/dark cycles. In this set of experiments, 50 animals were investigated divided into the following 7 experimental groups: • sham induced controls (n=10) • MCT induced PH (n=8) • MCT induced PH+MACI (n=8) • MCT induced PH+F8mIL9F8 in CrAb format (n=6) • MCT induced PH+KSFmIL9KSF in CrAb format (n=6) • MCT induced PH+F8_(IgG-HC4)-mIL9 (n=6) • MCT induced PH+KSF_(IgG-HC4)-mIL9 (n=6)
For PH induction, the Monocrotaline (MCT, Carl Roth, Germany) method was used.
The sham induced controls were injected with 30 μl NaCl not containing MCT at day 1 (single dose; intraperitoneally, i.p.). […] The other 6 experimental groups were injected with MCT (single dose; intraperitoneally, i.p.; 60 mg/kg body weight; volume 30 μl). Animals in the MCT induced PH+MACI group received the drug (Macitentan, Actelion Pharmaceuticals Ltd.) from day 14 to day 28 (once daily; per os; 15 mg/kg body weight).
Animals in the MCT induced PH+F8mIL9F8 in CrAb format group received F8mIL9F8 3 times on days 14, 16 and 18 (intravenously, i.v.; 200 μg/injection; volume 154 μl). Animals in the MCT induced PH+KSFmIL9KSF in CrAb format group received KSFmIL9KSF 3 times on days 14, 16 and 18 (intravenously, i.v.; 198 μg/injection; volume 182 μl).
Animals in the MCT induced PH+F8_(IgG-HC4)-mIL9 group received F8_(IgG-HC4)-mIL9 3 times on days 14, 16 and 18 (intravenously, i.v.; 261 μg/injection; volume 137 μl). Animals in the MCT induced PH+KSF_(IgG-HC4)-mIL9 group received KSF_IgG-HC4mIL9 3 times on days 14, 16 and 18 (intravenously, i.v.; 258 μg/injection; volume 161 μl).
On day 28 after MCT injection, mice of all experimental groups were deeply anesthetized with a single dose of 100 mg/kg body weight ketamine and 10 mg/kg body weight Xylazin in approximately 60 μl each administered i.p.
Right heart catheterization using a 1.4 F micro conductance pressure-volume catheter (Model SPR-839; Millar Instruments Inc; PowerLab system, ADInstruments Ltd., Oxford, UK) was performed via the right vena jugularis interna to measure the systolic right ventricular pressure and thereby verify the success of the experimental setting. Mice were then sacrificed in deep anesthesia and analgesia to carry out cardiac blood collection after thoracotomy and to harvest the organs.
(§1) Statistical analyses were performed using IBM SPSS statistical software, version 25.0 (IBM SPSS Statistics for Windows. Armonk, N.Y., USA). Data are expressed as mean±standard deviation. […]

[3] = system: Monocrotaline (MCT) induced pulmonary hypertension (PH) in C57BL/6 mice; experiment: Echocardiographic assessment in MCT induced PH mouse model (Example 4); format: in vivo; details: in contrast to KSF containing control immunocytokines
Protocol: To induce Pulmonary Hypertension (PH), C57BL/6 mice (bodyweight: 25-30 g) were used. The animals were obtained from ZET facility (Zentrale Experimentelle Tierhaltung) of the University Hospital Jena (UKJ, Jena, Germany). Prior to PH induction, mice were allowed to acclimatize for at least 7 days with ad libitum access to food and water as well as controlled light/dark cycles. […]
Echocardiographic assessment was performed on day 28 using the Vevo 770 Rodent-Ultrasound-System, Visual Sonic, Canada, 17 MHz probe RMV176. […] Body temperature and respiratory rate were continuously monitored. All surrogate parameters of right ventricular (RV) morphology and function were assessed, among others, RV basal and medial diameters (in mm), RV length (in mm), tricuspid annular plane systolic excursion (TAPSE, in mm), right atrial area (RA area, in mm^2) or main pulmonary artery diameter (MPA, in mm).
as §1

T1 sequence (P02751 1629-1905 limits assumed): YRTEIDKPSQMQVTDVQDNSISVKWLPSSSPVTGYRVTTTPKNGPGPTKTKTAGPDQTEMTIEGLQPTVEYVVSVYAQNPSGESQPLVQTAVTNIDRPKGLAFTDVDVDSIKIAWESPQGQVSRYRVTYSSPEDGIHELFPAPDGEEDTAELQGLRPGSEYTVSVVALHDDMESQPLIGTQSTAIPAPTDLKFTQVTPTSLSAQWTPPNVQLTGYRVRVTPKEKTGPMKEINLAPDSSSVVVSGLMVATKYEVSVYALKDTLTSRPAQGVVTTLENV

Molecule | apparent KD [1] | also measured
F8(scFv)-hIL9-F8(scFv): human IL9 conjugated at N- and C-terminus to an F8 scFv, CrAb format; SEQ ID NO: 18 | in the nM range | –
F8(db)-hIL9: human IL9 conjugated to the C-terminus of the F8 diabody; SEQ ID NO: 22 | in the nM range | –
hIL9-F8(db): human IL9 conjugated to the N-terminus of the F8 diabody; SEQ ID NO: 23 | in the nM range | –
F8(IgG4-HC)-mIL9: two murine IL9 moieties fused to C-termini of heavy chains of F8 IgG4; SEQ ID NOs: 61 and 62 | – | treatment effects relative to MACI (result in words) [2]: improved compared with the effects achieved by MACI; pressure values in the right ventricle, RVPsys (result in words) ([2]; listed as F8_(IgG-HC4)-mIL9): significantly reduced; pressure values in the right ventricle, RVPsys (result in words) ([2]; listed as IgG-HC4mIL9): significantly reduce; echocardiographic signs of right ventricular load and dysfunction (result in words) [3]: significantly improved a variety
mIL9-F8(db): murine IL9 conjugated to the N-terminus of the F8 diabody; SEQ ID NO: 21 (protein, murine IL9 conjugated to the N-terminus of the F8 diabody (mIL9-F8(Db))) QRCSTTWGIRDTNYLIENLKDDPPSKCSCSGNVTSCLCLSVPTDDCTTPCYREGLLQLTNATQKSRLLPVFHRVKRIVEVLKNITCPSFSCEKPCNQTMAGNTLSFLKSLLGTFQKTEMQRQKSRPGGGGSGGGGSGGGGSEVQLLESGGGLVQPGGSLRLSCAASGFTFSLFTMSWVRQAPGKGLEWVSAISGSGGSTYYADSVKGRFTISRDNSKNTLYLQMNSLRAEDTAVYYCAKSTHLYLFDYWGQGTLVTVSSGGSGGEIVLTQSPGTLSLSPGERATLSCRASQSVSMPFLAWYQQKPGQAPRLLIYGASSRATGIPDRFSGSGSGTDFTLTISRLEPEDFAVYYCQQMRGRPPTFGQGTKVEIK | in the nM range | –
F8(db)-mIL9: murine IL9 conjugated to the C-terminus of the F8 diabody; SEQ ID NO: 20 (protein, of murine IL9 conjugated to the C-terminus of the F8 diabody (F8(Db)-mIL9)) EVQLLESGGGLVQPGGSLRLSCAASGFTFSLFTMSWVRQAPGKGLEWVSAISGSGGSTYYADSVKGRFTISRDNSKNTLYLQMNSLRAEDTAVYYCAKSTHLYLFDYWGQGTLVTVSSGGSGGEIVLTQSPGTLSLSPGERATLSCRASQSVSMPFLAWYQQKPGQAPRLLIYGASSRATGIPDRFSGSGSGTDFTLTISRLEPEDFAVYYCQQMRGRPPTFGQGTKVEIKGGGGSGGGGSGGGGSQRCSTTWGIRDTNYLIENLKDDPPSKCSCSGNVTSCLCLSVPTDDCTTPCYREGLLQLTNATQKSRLLPVFHRVKRIVEVLKNITCPSFSCEKPCNQTMAGNTLSFLKSLLGTFQKTEMQRQKSRP | in the nM range | –
